Patent publication US20030235577A1, “Methods and compositions for preventing and treating microbial infections” (priority 2002, published 2003)

Experiments:
S. aureus = experiment: In vitro antimicrobial activity, co-incubation with S. aureus in 5% LB and CFU count; assay type: cell-based, Staphylococcus aureus; conditions: for direct antimicrobial activity: S. aureus, similar doses and conditions as full-length MMP-12; for antimicrobial activity after heat denaturation: heat denaturation / heat inactivation; for antimicrobial activity after enzymatic inhibition: inhibited with hydroxamic acid, an MMP inhibitor
Description: S. aureus co-culture was incubated for 60 minutes with doses of MMP-12 C-terminal. Aliquots of cultures were diluted in PBS at 1:10 and 1:100 dilution. Dilutions were plated on LB agar plates for 18 hour incubation at 37° C. Controls consisted of column fractions that lacked MMP-12 carboxy terminal determined by immunoblotting.
(§1) MMP-12's mechanism of action as a host defense protein was investigated. To test for direct activity, functional full-length recombinant human MMP-12 was incubated with S. aureus in a 5% LB culture. […] MMP-12 enzymatic activity was not required for this antimicrobial effect.
(§2) Mid-log phase bacteria (10^5) were incubated in the absence or presence of purified MMP-12 C-terminal in a total volume of 100 μl of 10 mmol/L sodium phosphate containing 5% (vol/vol) TSB at 37° C. for 1 hour. Serial dilutions were then spread on agarose plates and the number of CFUs were determined after overnight incubation.

K. pneumonia = experiment: In vitro antimicrobial activity against K. pneumonia; assay type: cell-based; conditions: compared with S. aureus dose response
Description: as §1
Recombinant full length human MMP-12 was co-incubated with S. aureus and K. pneumonia for 2 hours. Dose response curve was for recombinant murine carboxy terminal domain against S. aureus and E. coli after one-hour co-incubation.

E. coli (K1) = experiment: In vitro antimicrobial activity against E. coli (K1); assay type: cell-based
Description: as §2

Molecule | direct antimicrobial activity (S. aureus; 5% LB culture) | bacterial kill (S. aureus; 16 μg/ml, 2-hour incubation, 5% LB culture) | direct antimicrobial activity (S. aureus; 5% LB culture, listed as pro-MMP-12) | antimicrobial activity after heat denaturation (S. aureus) | antimicrobial activity after heat denaturation (S. aureus; listed as Pro-MMP-12) | antimicrobial activity after enzymatic inhibition (S. aureus) | antimicrobial activity after enzymatic inhibition (S. aureus; listed as Pro-MMP-12) | antimicrobial activity against K. pneumonia (K. pneumonia) | antimicrobial activity against E. coli (K1) (E. coli (K1))
MMP-9: commercially available full length pro-MMP 9 (protein, UniProt P14780 20-707, looked up, pro-form) pro-form: APRQRQSTLVLFPGDLRTNLTDRQLAEEYLYRYGYTRVAEMRGESKSLGPALLLLQKQLSLPETGELDSATLKAMRTPRCGVPDLGRFQTFEGDLKWHHHNITYWIQNYSEDLPRAVIDDAFARAFALWSAVTPLTFTRVYSRDADIVIQFGVAEHGDGYPFDGKDGLLAHAFPPGPGIQGDAHFDDDELWSLGKGVVVPTRFGNADGAACHFPFIFEGRSYSACTTDGRSDGLPWCSTTANYDTDDRFGFCPSERLYTQDGNADGKPCQFPFIFQGQSYSACTTDGRSDGYRWCATTANYDRDKLFGFCPTRADSTVMGGNSAGELCVFPFTFLGKEYSTCTSEGRGDGRLWCATTSNFDSDKKWGFCPDQGYSLFLVAAHEFGHALGLDHSSVPEALMYPMYRFTEGPPLHKDDVNGIRHLYGPRPEPEPRPPTTTTPQPTAPPTVCPTGPPTVHPSERPTAGPTGPPSAGPTGPPTAGPSTATTVPLSPVDDACNVNIFDAIAEIGNQLYLFKDGKYWRFSEGRGSRPQGPFLIADKWPALPRKLDSVFEERLSKKLFFFSGRQVWVYTGASVLGPRRLDKLGLGADVAQVTGALRSGRGKMLLFSGRRLWRFDVKAQMVDPRSASEVDRMFPGVPLDTHDVFQYREKAYFCQDRFYWRVSSRSELNQVDQVGYVTYDILQCPED | did not demonstrate this direct antimicrobial activity | – | – | – | – | – | – | – | –
MMP-2: commercially available full length pro-MMP 2 (protein, UniProt P08253 30-660, looked up, pro-form) pro-form: APSPIIKFPGDVAPKTDKELAVQYLNTFYGCPKESCNLFVLKDTLKKMQKFFGLPQTGDLDQNTIETMRKPRCGNPDVANYNFFPRKPKWDKNQITYRIIGYTPDLDPETVDDAFARAFQVWSDVTPLRFSRIHDGEADIMINFGRWEHGDGYPFDGKDGLLAHAFAPGTGVGGDSHFDDDELWTLGEGQVVRVKYGNADGEYCKFPFLFNGKEYNSCTDTGRSDGFLWCSTTYNFEKDGKYGFCPHEALFTMGGNAEGQPCKFPFRFQGTSYDSCTTEGRTDGYRWCGTTEDYDRDKKYGFCPETAMSTVGGNSEGAPCVFPFTFLGNKYESCTSAGRSDGKMWCATTANYDDDRKWGFCPDQGYSLFLVAAHEFGHAMGLEHSQDPGALMAPIYTYTKNFRLSQDDIKGIQELYGASPDIDLGTGPTPTLGPVTPEICKQDIVFDGIAQIRGEIFFFKDRFIWRTVTPRDKPMGPLLVATFWPELPEKIDAVYEAPQEEKAVFFAGNEYWIYSASTLERGYPKPLTSLGLPPDVQRVDAAFNWSKNKKTYIFAGDKFWRYNEVKKKMDPGFPKLIADAWNAIPDNLDAVVDLQGGGHSYFFKGAYYLKLENQSLKSVKFGSIKSDWLGC | did not demonstrate this direct antimicrobial activity | – | – | – | – | – | – | – | –
MMP-12: functional full-length recombinant human MMP-12 (macrophage elastase), Genbank NP_002417 (protein, listed as Homo sapiens) MKFLLILLLQATASGALPLNSSTSLEKNNVLFGERYLEKFYGLEINKLPVTKMKYSGNLMKEKIQEMQHFLGLKVTGQLDTSTLEMMHAPRCGVPDLHHFREMPGGPVWRKHYITYRINNYTPDMNREDVDYAIRKAFQVWSNVTPLKFSKINTGMADILVVFARGAHGDFHAFDGKGGILAHAFGPGSGIGGDAHFDEDEFWTTHSGGTNLFLTAVHEIGHSLGLGHSSDPKAVMFPTYKYVDINTFRLSADDIRGIQSLYGDPKENQRLPNPDNSEPALCDPNLSFDAVTTVGNKIFFFKDRFFWLKVSERPKTSVNLISSLWPTLPSGIEAAYEIEARNQVFLFKDDKYWLISNLRPEPNYPKSIHSFGFPNFVKKIDAAVFNPRFYRTYFFVDNQYWRYDERRQMMDPGYPKLITKNFQGIGPKIDAVFYSKNKYYYFFQGSNQFEYDFLLQRITKTLKSNSWFGC | antimicrobial activity | 90% | direct anti-microbial effect | Neither the denatured MMP-12 or enzymatically inhibited enzyme lost its antimicrobial function | did not lose its anti-microbial activity | Neither the denatured MMP-12 or enzymatically inhibited enzyme lost its antimicrobial function | did not lose its anti-microbial activity | antimicrobial activity | antimicrobial activity
